In US20220040290A1:

Biological target: stabilized CH505 TF ch.SOSIP trimer (E64K/A316W) (HIV-1)
Test: method not stated

Substance: unmutated common ancestor (UCA) of the CH103 B cell lineage (antibody)
- Kd: 171 nM
